Our source for the Kd values is publication PMC3314626 (2012).

For this assay, the target named is T1, ALC1 peptide (Homo sapiens, UniProt O94985).
T1 chain: KENEMDWDDSALTI
Put plainly: ITC. For orientation: In ITC the heat of successive injections is recorded.

Residue numbers refer to the chain shown, from its start.

B1: KLC1 TPR (protein)
chain: GGYEIPARLRTLHNLVIQYASQGRYEVAVPLCKQALEDLEKTSGHDHPDVATMLNILALVYRDQNKYKDAANLLNDALAIREKTLGKDHPAVAATLNNLAVLYGKRGKYKEAEPLCKRALEIREKVLGKDHPDVAKQLSNLALLCQNQGKYEEVEYYYQRALEIYQTKLGPDDPNVAKTKNNLASCYLKQGKFKQAETLYKEILTRAHEREFGSVDDENKPIWMHAEEREECKGKQKDGTSFGEYGGWYKACKVDSPTVTTTLKNLGALYRRQGKFEAAETLEEAAMRSRKQG
For the molecule B1, the Kd (in general, the equilibrium constant for the complex coming apart) came out at 44 µM.

B2: KLC1 TPR (protein)
chain: B1 chain with S139N
Turning to B2, binding was put at a Kd of 50 µM.
